Assay results as given in US20170210813A1 (Regeneron, published 2017).

Key:
[1] = molecular target: full length human PDGFR-beta on HEK293 cells (human, UniProt P09619 33-1106); assay: cell-based or functional assay
hPDGFRb.mmh [2] = molecular target: T1, hPDGFRb.mmh (human, UniProt P09619 33-531); assay: SPR, mAb captured, 25 C
T1 construct: Soluble monomeric construct; also called soluble human PDGFR-beta.mmh
Description: (§1) Antibodies, expressed as either mouse Fc (prefix H1M; H2M) or human Fc (prefix H4H), were captured on their respective anti-Fc sensor surfaces (Mab capture format). […] Kinetic association (kₐ) and dissociation (kd) rate constants were determined by processing and fitting the data to a 1:1 binding model using Scrubber 2.0 curve fitting software.

[3] = molecular target: T2, Macaca fascicularis PDGFRb.mmh (Macaca fascicularis); assay: SPR, mAb captured, 25 C
T2 construct: Soluble monomeric construct; also called mfPDGFRb.mmh
T2 chain: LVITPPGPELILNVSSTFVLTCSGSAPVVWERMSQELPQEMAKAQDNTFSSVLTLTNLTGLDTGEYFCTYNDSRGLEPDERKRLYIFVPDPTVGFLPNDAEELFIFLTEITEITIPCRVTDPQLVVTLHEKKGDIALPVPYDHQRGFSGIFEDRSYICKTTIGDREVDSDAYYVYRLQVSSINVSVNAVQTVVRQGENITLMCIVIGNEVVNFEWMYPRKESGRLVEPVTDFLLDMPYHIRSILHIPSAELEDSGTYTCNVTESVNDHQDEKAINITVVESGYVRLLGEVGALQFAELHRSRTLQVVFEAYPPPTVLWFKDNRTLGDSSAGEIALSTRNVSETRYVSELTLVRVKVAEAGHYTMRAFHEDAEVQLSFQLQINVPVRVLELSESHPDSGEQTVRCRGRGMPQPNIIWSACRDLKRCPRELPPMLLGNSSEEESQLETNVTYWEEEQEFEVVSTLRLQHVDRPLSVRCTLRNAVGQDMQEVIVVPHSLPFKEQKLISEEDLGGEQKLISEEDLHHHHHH
Description: as §1

human PDGFRb.mFc = molecular target: T3, human PDGFRb.mFc (human); assay: SPR, mAb captured, 25 C
T3 construct: Soluble dimeric construct with mouse Fc; also called hPDGFRb.mFc; soluble human PDGFR-beta.mFc
T3 chain: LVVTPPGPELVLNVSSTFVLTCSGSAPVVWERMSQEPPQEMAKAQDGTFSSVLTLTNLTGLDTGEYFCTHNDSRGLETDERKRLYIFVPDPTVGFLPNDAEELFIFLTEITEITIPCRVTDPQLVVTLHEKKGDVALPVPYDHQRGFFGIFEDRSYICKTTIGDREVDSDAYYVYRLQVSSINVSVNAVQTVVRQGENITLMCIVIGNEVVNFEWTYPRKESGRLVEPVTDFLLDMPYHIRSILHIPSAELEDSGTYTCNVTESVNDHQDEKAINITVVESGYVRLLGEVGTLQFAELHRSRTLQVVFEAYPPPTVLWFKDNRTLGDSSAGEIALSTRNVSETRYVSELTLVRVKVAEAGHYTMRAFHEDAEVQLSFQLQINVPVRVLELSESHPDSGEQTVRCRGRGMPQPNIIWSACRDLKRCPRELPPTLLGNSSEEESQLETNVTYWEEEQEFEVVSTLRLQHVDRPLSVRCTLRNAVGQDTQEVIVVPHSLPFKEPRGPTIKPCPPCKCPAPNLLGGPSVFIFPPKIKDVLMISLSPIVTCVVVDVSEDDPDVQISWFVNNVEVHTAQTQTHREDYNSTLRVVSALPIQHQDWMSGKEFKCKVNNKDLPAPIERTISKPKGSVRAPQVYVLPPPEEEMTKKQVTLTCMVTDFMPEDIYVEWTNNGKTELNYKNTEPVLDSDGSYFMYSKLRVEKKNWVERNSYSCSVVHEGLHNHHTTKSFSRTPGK
Description: as §1

hPDGFRb.mmh [4] = molecular target: T1, hPDGFRb.mmh; assay: SPR, mAb captured, 37 C
Description: as §1

hPDGFRb.mmh [5] = molecular target: T1, hPDGFRb.mmh; assay: blocking ELISA, biot-hPDGFRb.mmh to coated PDGF-BB
Description: The equilibrated PDGFR-beta/antibody solutions were added to ligand-coated plates, allowed to incubate for 1 hr, and washed. Levels of bound biot-hPDGFR-beta.mmh were detected using HRP conjugated streptavidin. Data were analyzed using Prism software and IC₅₀ values were calculated as the amount of antibody required to achieve 50% reduction of hPDGFR-beta-mmh bound to ligand. Maximum blocking values were also calculated and reflect the ability of the antibody to block relative to baseline. The absorbance measured at the constant amount of 250 pM biot-hPDGFR-beta-mmh on the dose curve is defined as 0% blocking and the absorbance with no added PDGFR-beta is defined as 100%. The absorbance of the wells containing the highest antibody concentration determined the maximum blocking percent.

B1: H2M3373N (antibody, V domains shown)
VH: EVQLRDSGGGLVQPGGSLRLSCVASGFTFSSYWMSWVRQAPGKGLEWVVNINRDGSEKYYVDSVKGRFIISRDNTKNSLYLQMESLRAEDTAVYYCARDPPYHLYGMDVWGQGTTVTVSS
VL: DIQMTQSPSSLSASVGDRVTITCRTSQGIRVDLAWYQQKPGKAPERLIYAASSLQSGVPSRFSGGGSGTEFTLTVSSLQPEDFATYYCLQHHNFPYTFGQGTKLEIK
notes: mouse Fc (H2M prefix; isotype not spelled out)
[1]
  IC50, blocking PDGF-BB (250 pM) activation, SRE-luciferase: 7e-11 M
  IC50, blocking PDGF-DD (400 pM) activation, SRE-luciferase: 9.2e-11 M
hPDGFRb.mmh [2]
  Kd: 12.4 nM
  koff: 0.00235 s⁻¹
  kon: 189000 M⁻¹ s⁻¹
  t1/2: 5 min
[3]
  Kd: 18.3 nM
  koff: 0.00238 s⁻¹
  kon: 130000 M⁻¹ s⁻¹
  t1/2: 0.0833 h
Human PDGFRb.mFc
  Kd: 0.507 nM
  koff: 0.00024 s⁻¹
  kon: 473000 M⁻¹ s⁻¹
  t1/2: 0.8 h
hPDGFRb.mmh [4]
  Kd: 29.8 nM
  koff: 0.0122 s⁻¹
  kon: 410000 M⁻¹ s⁻¹
  t1/2: 0.9 min
hPDGFRb.mmh [5]
  % Maximum Blocking: 80%
  IC50: 0.9 nM

B2: H1M3310N (antibody, mouse IgG1, V domains shown)
VH: EVQLLESGGDLVQPGGSLRLSCAASGITFSSFAMSWVRQAPGKGLEWVSTVSVSAGITYYADSVKGRFTISRDNSKNTLYLQMNSLRAEDTAIYYCAKSSCTTNSCPAYFDYWGLGTLVTVSS
VL: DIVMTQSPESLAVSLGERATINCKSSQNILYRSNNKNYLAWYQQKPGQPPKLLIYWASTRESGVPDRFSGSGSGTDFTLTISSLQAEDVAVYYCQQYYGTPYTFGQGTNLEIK
notes: mouse IgG1 Fc (H1M prefix)
[1]
  IC50, blocking PDGF-BB (250 pM) activation, SRE-luciferase: 2.3e-08 M
  IC50, blocking PDGF-DD (400 pM) activation, SRE-luciferase: 2.8e-10 M
hPDGFRb.mmh [2]
  Kd: ≤ 0.07 nM
  koff: ≤ 1e-06 s⁻¹
  kon: 14000 M⁻¹ s⁻¹
  t1/2: 11600 min
[3]
  Kd: ≤ 0.1 nM
  koff: 1e-06 s⁻¹
  t1/2: 192 h
Human PDGFRb.mFc
  Kd: ≤ 0.0789 nM
  koff: ≤ 1e-06 s⁻¹
  kon: 12700 M⁻¹ s⁻¹
  t1/2: 192 h
hPDGFRb.mmh [4]
  Kd: 1.83 nM
  koff: 6.46e-05 s⁻¹
  kon: 35300 M⁻¹ s⁻¹
  t1/2: 179 min
hPDGFRb.mmh [5]
  % Maximum Blocking: 88%
  IC50: 0.12 nM

B3: H1M3361N (antibody, mouse IgG1, V domains shown)
VH: EVQLVESGGGLVQPGGSLRLSCAASGFTFSSYWMTWVRQAPGKGLEWVANIRQDGSDKYYVDSVKGRFTISRDNAKNSLFLQMNSLRAEDTAVYYCARTNGGTYGYNHYYYGMDVWGQGTTVTVSS
VL: DIQMTQSPSSLSASVGDRVTITCRASQGIRNDLGWYQLKPGKAPKRLIFAASSLQSGVPSRFSGSGSGTEFTLTISSLQPEDFATYYCLQHNSYPWTFGQGTKVEIK
notes: mouse IgG1 Fc (H1M prefix)
[1]
  IC50, blocking PDGF-BB (250 pM) activation, SRE-luciferase: 6.8e-09 M
  IC50, blocking PDGF-DD (400 pM) activation, SRE-luciferase: 8.4e-11 M
hPDGFRb.mmh [2]
  Kd: 7.29 nM
  koff: 0.00126 s⁻¹
  kon: 173000 M⁻¹ s⁻¹
  t1/2: 9 min
[3]
  Kd: 3.9 nM
  koff: 3.89e-05 s⁻¹
  kon: 10000 M⁻¹ s⁻¹
  t1/2: 4.95 h
Human PDGFRb.mFc
  Kd: ≤ 0.0765 nM
  koff: ≤ 1e-06 s⁻¹
  kon: 13100 M⁻¹ s⁻¹
  t1/2: 192 h
hPDGFRb.mmh [4]
  Kd: 27.4 nM
  koff: 0.00833 s⁻¹
  kon: 304000 M⁻¹ s⁻¹
  t1/2: 1.4 min
hPDGFRb.mmh [5]
  % Maximum Blocking: 76%
  IC50: 0.1 nM

B4: H2M3365N (antibody, V domains shown)
VH: EVQLVESGGGLVQPGRSLRLSCAASGFTFDDFAMHWVRQVPGKGLEWVSGISWSSGTIGYVGSVKGRFTISRDNAKNSLYLQMNSLRAEDTAMYFCTKDKAAFHDAFDIWGQGTMVTVSS
VL: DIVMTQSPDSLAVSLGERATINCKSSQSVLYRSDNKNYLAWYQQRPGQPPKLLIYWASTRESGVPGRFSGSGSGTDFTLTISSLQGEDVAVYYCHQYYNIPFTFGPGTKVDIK
notes: as for B1
[1]
  IC50, blocking PDGF-BB (250 pM) activation, SRE-luciferase: 7.9e-09 M
  IC50, blocking PDGF-DD (400 pM) activation, SRE-luciferase: 1.1e-10 M
hPDGFRb.mmh [2]
  Kd: 2.79 nM
  koff: 0.000127 s⁻¹
  kon: 45400 M⁻¹ s⁻¹
  t1/2: 91 min
[3]
  Kd: 3.4 nM
  koff: 0.000206 s⁻¹
  kon: 60000 M⁻¹ s⁻¹
  t1/2: 0.933 h
Human PDGFRb.mFc
  Kd: 0.34 nM
  koff: 8.01e-05 s⁻¹
  kon: 236000 M⁻¹ s⁻¹
  t1/2: 2.4 h
hPDGFRb.mmh [4]
  Kd: 4.79 nM
  koff: 0.000551 s⁻¹
  kon: 115000 M⁻¹ s⁻¹
  t1/2: 21 min
hPDGFRb.mmh [5]
  % Maximum Blocking: 82%
  IC50: 0.09 nM

B5: H2M3363N (antibody, V domains shown)
VH: QVQVQESGPGLVKPSETLSLTCTVSGDSISSSSYYWGWIRQPPGKGLEWIGSIYYNGISSYNPSLKSRVTISVESSKNQFSLRLASVTAADTALYYCARHRAARRFSEAFDIWGQGTMVTVSS
VL: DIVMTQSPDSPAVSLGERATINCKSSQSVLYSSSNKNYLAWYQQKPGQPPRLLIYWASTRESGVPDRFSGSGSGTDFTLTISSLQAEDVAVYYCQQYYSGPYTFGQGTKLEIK
notes: as for B1
[1]
  IC50, blocking PDGF-BB (250 pM) activation, SRE-luciferase: 7.5e-09 M
  IC50, blocking PDGF-DD (400 pM) activation, SRE-luciferase: 1.9e-10 M
hPDGFRb.mmh [2]
  Kd: 46.8 nM
  koff: 0.00333 s⁻¹
  kon: 71100 M⁻¹ s⁻¹
  t1/2: 3 min
[3]
  Kd: 1.4 nM
  koff: 6.85e-05 s⁻¹
  kon: 50000 M⁻¹ s⁻¹
  t1/2: 2.82 h
Human PDGFRb.mFc
  Kd: 0.0386 nM
  koff: 4.03e-06 s⁻¹
  kon: 104000 M⁻¹ s⁻¹
  t1/2: 47.8 h
hPDGFRb.mmh [4]
  Kd: 17.6 nM
  koff: 0.00503 s⁻¹
  kon: 286000 M⁻¹ s⁻¹
  t1/2: 2 min
hPDGFRb.mmh [5]
  % Maximum Blocking: 77%
  IC50: 4.1 nM

B6: H2M3368N (antibody, V domains shown)
VH: QVQLQQWGAGLLKPSETLSLTCAVYGGSFSGYYWTWIRQSPGKGLEWMGEISHRGTTNYNPSLKSRLTISLDTSNNHFSLKLSSVTAADTAVYYCAREERLGMGYDYFGLDVWGQGTTVTVSS
VL: EIVLTQSPATLSLSPGERATLSCRASQSVSTYLTWYQQKPGQAPRLLIYDASNRATGIPARFSGSGSGTDFTLTISSLEPEDCAVYYCQQRSIWITFGQGTRLEIK
notes: as for B1
[1]
  IC50, blocking PDGF-BB (250 pM) activation, SRE-luciferase: 1.8e-10 M
  IC50, blocking PDGF-DD (400 pM) activation, SRE-luciferase: 1.7e-10 M
hPDGFRb.mmh [2]
  Kd: 7.41 nM
  koff: 0.000341 s⁻¹
  kon: 46100 M⁻¹ s⁻¹
  t1/2: 34 min
[3]
  Kd: 30 nM
  koff: 0.000185 s⁻¹
  kon: 7000 M⁻¹ s⁻¹
  t1/2: 1.05 h
Human PDGFRb.mFc
  Kd: 0.313 nM
  koff: 3.7e-05 s⁻¹
  kon: 118000 M⁻¹ s⁻¹
  t1/2: 5.22 h
hPDGFRb.mmh [4]
  Kd: 6.17 nM
  koff: 0.000844 s⁻¹
  kon: 137000 M⁻¹ s⁻¹
  t1/2: 14 min
hPDGFRb.mmh [5]
  % Maximum Blocking: 79%
  IC50: 0.13 nM
